Results as given in patent US20150344540A1, “NOVEL GLP-1 RECEPTOR AGONISTS WITH CHOLESTEROL EFFLUX ACTIVITY” (NOVO NORDISK A/S, priority 2012, published 2015).
Where no end group is shown, it is not given here. [ ]: non-standard residue; d: D form. Aib = CC(C)(N)C(=O)O

biological target: human GLP-1 receptor (human, UniProt P43220); test: cell-based or functional assay

Row | Binder | CRE luciferase EC50, 0% HSA [nM] | CRE luciferase EC50, 1% HSA [nM]
1 | HAEGTFTSDVSSYLEGEAVREFIAWLVHRVREFLEK [[Glu23,Val25,Arg26,His34,Arg35,Val36,Arg37]-GLP-1-(7-37)-peptidyl-Glu-Phe-Leu-Glu-Lys] | 0.039 | 0.014
2 | HAEGTFTSDVSSYLEGQAAKEFIAWLVEHVKEFL-NH2 [[Glu34,His35,Val36,Lys37]-GLP-1-(7-37)-peptidyl-Glu-Phe-Leu amide] | 0.103 | 0.024
3 | HAEGTFTSDVSSYLEGQAAKEFIAWLVEKVHEFL-NH2 [[Glu34,Lys35,Val36,His37]-GLP-1-(7-37)-peptidyl-Glu-Phe-Leu amide] | 0.107 | 0.03
4 | H[Aib]EGTFTSDLSKQMEGEAVRLFIEWLKNK[Aib]LEFLELL-NH2 (N-terminus assumed; SMILES CC[C@H](C)[C@H](NC(=O)[C@H](Cc1ccccc1)NC(=O)[C@H](CC(C)C)NC(=O)[C@H](CCCNC(=N)N)NC(=O)[C@@H](NC(=O)[C@H](C)NC(=O)[C@H](CCC(=O)O)NC(=O)CNC(=O)[C@H](CCC(=O)O)NC(=O)[C@H](CCSC)NC(=O)[C@H](CCC(N)=O)NC(=O)[C@H](CCCCN)NC(=O)[C@H](CO)NC(=O)[C@H](CC(C)C)NC(=O)[C@H](CC(=O)O)NC(=O)[C@H](CO)NC(=O)[C@@H](NC(=O)[C@H](Cc1ccccc1)NC(=O)[C@@H](NC(=O)CNC(=O)[C@H](CCC(=O)O)NC(=O)C(C)(C)NC(=O)[C@@H](N)Cc1c[nH]cn1)[C@@H](C)O)[C@@H](C)O)C(C)C)C(=O)N[C@@H](CCC(=O)O)C(=O)N[C@@H](Cc1c[nH]c2ccccc12)C(=O)N[C@@H](CC(C)C)C(=O)N[C@@H](CCCCN)C(=O)N[C@@H](CC(N)=O)C(=O)N[C@@H](CCCCN)C(=O)NC(C)(C)C(=O)N[C@@H](CC(C)C)C(=O)N[C@@H](CCC(=O)O)C(=O)N[C@@H](Cc1ccccc1)C(=O)N[C@@H](CC(C)C)C(=O)N[C@@H](CCC(=O)O)C(=O)N[C@@H](CC(C)C)C(=O)N[C@@H](CC(C)C)C(N)=O) [[Aib2,Gly16,Lys29,Aib30,Leu31,Glu32,Phe33,Leu34,Glu35,Leu36,Leu37]-Exendin-4-(1-37)-peptide amide] | 1.51 | 0.552
5 | HAEGTYTNDVTEYLEGEAVKEFIAWLVEK[Aib]KEFL-NH2 (N-terminus assumed; SMILES CC[C@H](C)[C@H](NC(=O)[C@H](Cc1ccccc1)NC(=O)[C@H](CCC(=O)O)NC(=O)[C@H](CCCCN)NC(=O)[C@@H](NC(=O)[C@H](C)NC(=O)[C@H](CCC(=O)O)NC(=O)CNC(=O)[C@H](CCC(=O)O)NC(=O)[C@H](CC(C)C)NC(=O)[C@H](Cc1ccc(O)cc1)NC(=O)[C@H](CCC(=O)O)NC(=O)[C@@H](NC(=O)[C@@H](NC(=O)[C@H](CC(=O)O)NC(=O)[C@H](CC(N)=O)NC(=O)[C@@H](NC(=O)[C@H](Cc1ccc(O)cc1)NC(=O)[C@@H](NC(=O)CNC(=O)[C@H](CCC(=O)O)NC(=O)[C@H](C)NC(=O)[C@@H](N)Cc1c[nH]cn1)[C@@H](C)O)[C@@H](C)O)C(C)C)[C@@H](C)O)C(C)C)C(=O)N[C@@H](C)C(=O)N[C@@H](Cc1c[nH]c2ccccc12)C(=O)N[C@@H](CC(C)C)C(=O)N[C@H](C(=O)N[C@@H](CCC(=O)O)C(=O)N[C@@H](CCCCN)C(=O)NC(C)(C)C(=O)N[C@@H](CCCCN)C(=O)N[C@@H](CCC(=O)O)C(=O)N[C@@H](Cc1ccccc1)C(=O)N[C@@H](CC(C)C)C(N)=O)C(C)C) | 0.202 | 0.104
6 | HADGTLTSDISSYLEGEAVKEFIAWLVEK[Aib]KEFL-NH2 [[Asp9,Leu12,Ile16,Glu23,Val25,Glu34,Lys35,Aib36,Lys37]-GLP-1-(7-37)-peptidyl-Glu-Phe-Leu amide] | 0.222 | 0.062
7 | HAEGTFTHDVSSYYEGEAVKEFIAWLVEK[Aib]KEFL-NH2 (N-terminus assumed; SMILES CC[C@H](C)[C@H](NC(=O)[C@H](Cc1ccccc1)NC(=O)[C@H](CCC(=O)O)NC(=O)[C@H](CCCCN)NC(=O)[C@@H](NC(=O)[C@H](C)NC(=O)[C@H](CCC(=O)O)NC(=O)CNC(=O)[C@H](CCC(=O)O)NC(=O)[C@H](Cc1ccc(O)cc1)NC(=O)[C@H](Cc1ccc(O)cc1)NC(=O)[C@H](CO)NC(=O)[C@H](CO)NC(=O)[C@@H](NC(=O)[C@H](CC(=O)O)NC(=O)[C@H](Cc1c[nH]cn1)NC(=O)[C@@H](NC(=O)[C@H](Cc1ccccc1)NC(=O)[C@@H](NC(=O)CNC(=O)[C@H](CCC(=O)O)NC(=O)[C@H](C)NC(=O)[C@@H](N)Cc1c[nH]cn1)[C@@H](C)O)[C@@H](C)O)C(C)C)C(C)C)C(=O)N[C@@H](C)C(=O)N[C@@H](Cc1c[nH]c2ccccc12)C(=O)N[C@@H](CC(C)C)C(=O)N[C@H](C(=O)N[C@@H](CCC(=O)O)C(=O)N[C@@H](CCCCN)C(=O)NC(C)(C)C(=O)N[C@@H](CCCCN)C(=O)N[C@@H](CCC(=O)O)C(=O)N[C@@H](Cc1ccccc1)C(=O)N[C@@H](CC(C)C)C(N)=O)C(C)C) [[His14,Tyr20,Glu23,Val25,Glu34,Lys35,Aib36,Lys37]-GLP-1-(7-37)-peptidyl-Glu-Phe-Leu amide] | 0.338 | 0.101
8 | H[Aib]EGTFTSDVSSYLEGEAVKEFIAHLVEK[Aib]KEFL-NH2 (N-terminus assumed; SMILES CC[C@H](C)[C@H](NC(=O)[C@H](Cc1ccccc1)NC(=O)[C@H](CCC(=O)O)NC(=O)[C@H](CCCCN)NC(=O)[C@@H](NC(=O)[C@H](C)NC(=O)[C@H](CCC(=O)O)NC(=O)CNC(=O)[C@H](CCC(=O)O)NC(=O)[C@H](CC(C)C)NC(=O)[C@H](Cc1ccc(O)cc1)NC(=O)[C@H](CO)NC(=O)[C@H](CO)NC(=O)[C@@H](NC(=O)[C@H](CC(=O)O)NC(=O)[C@H](CO)NC(=O)[C@@H](NC(=O)[C@H](Cc1ccccc1)NC(=O)[C@@H](NC(=O)CNC(=O)[C@H](CCC(=O)O)NC(=O)C(C)(C)NC(=O)[C@@H](N)Cc1c[nH]cn1)[C@@H](C)O)[C@@H](C)O)C(C)C)C(C)C)C(=O)N[C@@H](C)C(=O)N[C@@H](Cc1c[nH]cn1)C(=O)N[C@@H](CC(C)C)C(=O)N[C@H](C(=O)N[C@@H](CCC(=O)O)C(=O)N[C@@H](CCCCN)C(=O)NC(C)(C)C(=O)N[C@@H](CCCCN)C(=O)N[C@@H](CCC(=O)O)C(=O)N[C@@H](Cc1ccccc1)C(=O)N[C@@H](CC(C)C)C(N)=O)C(C)C) [[Aib8,Glu23,Val25,His31,Glu34,Lys35,Aib36,Lys37]-GLP-1-(7-37)-peptidyl-Glu-Phe-Leu amide] | 0.066 | 0.02
9 | H[Aib]EGTFTSDVSSYLEGDAVKDFIAWLVEK[Aib]KEFL-NH2 (N-terminus assumed; SMILES CC[C@H](C)[C@H](NC(=O)[C@H](Cc1ccccc1)NC(=O)[C@H](CC(=O)O)NC(=O)[C@H](CCCCN)NC(=O)[C@@H](NC(=O)[C@H](C)NC(=O)[C@H](CC(=O)O)NC(=O)CNC(=O)[C@H](CCC(=O)O)NC(=O)[C@H](CC(C)C)NC(=O)[C@H](Cc1ccc(O)cc1)NC(=O)[C@H](CO)NC(=O)[C@H](CO)NC(=O)[C@@H](NC(=O)[C@H](CC(=O)O)NC(=O)[C@H](CO)NC(=O)[C@@H](NC(=O)[C@H](Cc1ccccc1)NC(=O)[C@@H](NC(=O)CNC(=O)[C@H](CCC(=O)O)NC(=O)C(C)(C)NC(=O)[C@@H](N)Cc1c[nH]cn1)[C@@H](C)O)[C@@H](C)O)C(C)C)C(C)C)C(=O)N[C@@H](C)C(=O)N[C@@H](Cc1c[nH]c2ccccc12)C(=O)N[C@@H](CC(C)C)C(=O)N[C@H](C(=O)N[C@@H](CCC(=O)O)C(=O)N[C@@H](CCCCN)C(=O)NC(C)(C)C(=O)N[C@@H](CCCCN)C(=O)N[C@@H](CCC(=O)O)C(=O)N[C@@H](Cc1ccccc1)C(=O)N[C@@H](CC(C)C)C(N)=O)C(C)C) [[Aib8,Asp23,Val25,Asp27,Glu34,Lys35,Aib36,Lys37]-GLP-1-(7-37)-peptidyl-Glu-Phe-Leu amide] | 4.88 | 0.776
10 | H[Aib]EGTFTSDVSSYLEGEAVKEFIAWLVEKLKELV-NH2 (N-terminus assumed; SMILES CC[C@H](C)[C@H](NC(=O)[C@H](Cc1ccccc1)NC(=O)[C@H](CCC(=O)O)NC(=O)[C@H](CCCCN)NC(=O)[C@@H](NC(=O)[C@H](C)NC(=O)[C@H](CCC(=O)O)NC(=O)CNC(=O)[C@H](CCC(=O)O)NC(=O)[C@H](CC(C)C)NC(=O)[C@H](Cc1ccc(O)cc1)NC(=O)[C@H](CO)NC(=O)[C@H](CO)NC(=O)[C@@H](NC(=O)[C@H](CC(=O)O)NC(=O)[C@H](CO)NC(=O)[C@@H](NC(=O)[C@H](Cc1ccccc1)NC(=O)[C@@H](NC(=O)CNC(=O)[C@H](CCC(=O)O)NC(=O)C(C)(C)NC(=O)[C@@H](N)Cc1c[nH]cn1)[C@@H](C)O)[C@@H](C)O)C(C)C)C(C)C)C(=O)N[C@@H](C)C(=O)N[C@@H](Cc1c[nH]c2ccccc12)C(=O)N[C@@H](CC(C)C)C(=O)N[C@H](C(=O)N[C@@H](CCC(=O)O)C(=O)N[C@@H](CCCCN)C(=O)N[C@@H](CC(C)C)C(=O)N[C@@H](CCCCN)C(=O)N[C@@H](CCC(=O)O)C(=O)N[C@@H](CC(C)C)C(=O)N[C@H](C(N)=O)C(C)C)C(C)C) [[Aib8,Glu23,Val25,Glu34,Lys35,Leu36,Lys37]-GLP-1-(7-37)-peptidyl-Glu-Leu-Val amide] | 0.155 | 0.082
11 | H[Aib]EGTFTSDVSSYLEGWAVKEFIAWLVEK[Aib]KEFL-NH2 (N-terminus assumed; SMILES CC[C@H](C)[C@H](NC(=O)[C@H](Cc1ccccc1)NC(=O)[C@H](CCC(=O)O)NC(=O)[C@H](CCCCN)NC(=O)[C@@H](NC(=O)[C@H](C)NC(=O)[C@H](Cc1c[nH]c2ccccc12)NC(=O)CNC(=O)[C@H](CCC(=O)O)NC(=O)[C@H](CC(C)C)NC(=O)[C@H](Cc1ccc(O)cc1)NC(=O)[C@H](CO)NC(=O)[C@H](CO)NC(=O)[C@@H](NC(=O)[C@H](CC(=O)O)NC(=O)[C@H](CO)NC(=O)[C@@H](NC(=O)[C@H](Cc1ccccc1)NC(=O)[C@@H](NC(=O)CNC(=O)[C@H](CCC(=O)O)NC(=O)C(C)(C)NC(=O)[C@@H](N)Cc1c[nH]cn1)[C@@H](C)O)[C@@H](C)O)C(C)C)C(C)C)C(=O)N[C@@H](C)C(=O)N[C@@H](Cc1c[nH]c2ccccc12)C(=O)N[C@@H](CC(C)C)C(=O)N[C@H](C(=O)N[C@@H](CCC(=O)O)C(=O)N[C@@H](CCCCN)C(=O)NC(C)(C)C(=O)N[C@@H](CCCCN)C(=O)N[C@@H](CCC(=O)O)C(=O)N[C@@H](Cc1ccccc1)C(=O)N[C@@H](CC(C)C)C(N)=O)C(C)C) [[Aib8,Trp23,Val25,Glu34,Lys35,Aib36,Lys37]-GLP-1-(7-37)-peptidyl-Glu-Phe-Leu amide] | 0.763 | 0.296
12 | HAEGTFTNDMTNYLEGEAVKEFIAWLVEKGKEFL-NH2 | 0.079 | 0.028
